Literature values, collected in PMC6389717.

Experiments:
Lys39 = Lys39 (UniProt position 39, IMAVVKANAYG); assay: kinetics; details: enzyme-substrate complex (alanine-bound active site, external aldimine)
Asp38 = Asp38 (UniProt position 38, DATVEDPVGSE); assay: kinetics (per the article's general statement only; no method given for this value); details: presumed enzyme-substrate complex (general statement of the article); not given

| Substance | pKa (Lys39) | pKa (Asp38) |
| --- | --- | --- |
| Alanine racemase (not stated in the article (inferred: Geobacillus stearothermophilus, formerly Bacillus stearothermophilus)) | 7.4 |  |
| Ketosteroid isomerase (3-oxo-Delta5-steroid isomerase) (not stated in the article (inferred: Comamonas testosteroni, formerly Pseudomonas testosteroni)) |  | 4.6 |
